From US20250043022A1 (JIANGSU HENGRUI PHARMACEUTICALS, published 2025)

Biological target: T1, human PSMA on cells (Cho-hPSMA, CHO-K1 cells overexpressing full-length human PSMA) (human, UniProt Q04609 1-750)
T1 construct: whole, on cells; also called cell surface PSMA; PSMA-expressing Lncap cells
Assay: cell ELISA (OD450), Cho-hPSMA cells
Description: Experiment 2: Cells were cultured and inoculated onto a cell plate using the same method as in Experiment 1. The antibodies were serially diluted, and the antibody solutions were added to the cell plate at 100 μL/well. The plate was incubated at 4° C. for 1 h and then washed. An HRP-Goat Anti-human IgG (H+L) secondary antibody dilution (1:8000) was added to the cell plate at 100 μL/well, and the plate was incubated at 4° C. for 1 h and then washed by centrifugation. After color development with TMB, the reaction was stopped with 0.1 M sulfuric acid, and OD450 values were measured.

T1 sequence (Q04609 whole entry): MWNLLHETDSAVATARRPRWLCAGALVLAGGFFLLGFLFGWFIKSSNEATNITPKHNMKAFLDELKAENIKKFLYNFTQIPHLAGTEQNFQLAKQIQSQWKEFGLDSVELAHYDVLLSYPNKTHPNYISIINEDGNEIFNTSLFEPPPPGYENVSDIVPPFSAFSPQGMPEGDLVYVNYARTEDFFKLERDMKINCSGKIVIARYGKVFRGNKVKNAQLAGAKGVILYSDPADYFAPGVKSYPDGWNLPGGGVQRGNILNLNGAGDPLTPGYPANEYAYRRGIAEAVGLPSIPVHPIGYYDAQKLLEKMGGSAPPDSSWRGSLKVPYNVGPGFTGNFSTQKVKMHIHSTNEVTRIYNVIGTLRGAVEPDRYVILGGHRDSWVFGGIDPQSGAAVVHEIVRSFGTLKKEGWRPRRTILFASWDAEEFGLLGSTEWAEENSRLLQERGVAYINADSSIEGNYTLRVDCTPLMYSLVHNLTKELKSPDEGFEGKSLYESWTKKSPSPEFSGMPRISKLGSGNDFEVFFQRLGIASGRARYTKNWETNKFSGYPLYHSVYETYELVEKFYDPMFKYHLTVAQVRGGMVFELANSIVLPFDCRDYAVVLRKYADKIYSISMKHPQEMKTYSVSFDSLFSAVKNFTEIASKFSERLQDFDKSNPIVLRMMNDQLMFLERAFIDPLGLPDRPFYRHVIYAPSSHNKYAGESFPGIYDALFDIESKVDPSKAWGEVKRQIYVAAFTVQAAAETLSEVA

Row | EC50 | Binder
1 | 0.982 µg/mL | hu41H1L2 (antibody, human IgG1, kappa, V domains shown) VH: EVQLVQSGAEVKKPGASVKVSCKASGYTFTSYGISWVRQAPGQGLEWMGEIFPRRGNTYYNEKFRGRVTMTTDKSTSTAYMELRSLRSDDTAVYYCARVFDGYYNYAMDYWGQGTTVTVSS VL: DIQMTQSPSSLSASVGDRVTITCRASQDIGSSLNWLQQKPGKAIKRLIYATSSLDSGVPSRFSGSRSGTDYTLTISSLQPEDFATYYCLQYASSPYTFGGGTKVEIKR
2 | 1.08 µg/mL | hu41H1L1 (antibody, human IgG1, kappa, V domains shown) VH: EVQLVQSGAEVKKPGASVKVSCKASGYTFTSYGISWVRQAPGQGLEWMGEIFPRRGNTYYNEKFRGRVTMTTDKSTSTAYMELRSLRSDDTAVYYCARVFDGYYNYAMDYWGQGTTVTVSS VL: DIQMTQSPSSLSASVGDRVTITCRASQDIGSSLNWLQQKPGKAPKRLIYATSSLDSGVPSRFSGSRSGTDFTLTISSLQPEDFATYYCLQYASSPYTFGGGTKVEIKR
3 | 0.985 µg/mL | hu41H1L3 (antibody, human IgG1, kappa, V domains shown) VH: EVQLVQSGAEVKKPGASVKVSCKASGYTFTSYGISWVRQAPGQGLEWMGEIFPRRGNTYYNEKFRGRVTMTTDKSTSTAYMELRSLRSDDTAVYYCARVFDGYYNYAMDYWGQGTTVTVSS VL: DIQMTQSPSSLSASVGDRVTITCRASQDIGSSLNWLQQKPGGAIKRLIYATSSLDSGVPSRFSGSRSGSDYTLTISSLQPEDFATYYCLQYASSPYTFGGGTKVEIKR
4 | 1.22 µg/mL | hu41H2L1 (antibody, human IgG1, kappa, V domains shown) VH: EVQLVQSGAEVKKPGASVKVSCKASGYTFTSYGISWVRQAPGQGLEWMGEIFPRRGNTYYNEKFRGRVTLTADKSTSTAYMELRSLRSDDTAVYYCARVFDGYYNYAMDYWGQGTTVTVSS VL: DIQMTQSPSSLSASVGDRVTITCRASQDIGSSLNWLQQKPGKAPKRLIYATSSLDSGVPSRFSGSRSGTDFTLTISSLQPEDFATYYCLQYASSPYTFGGGTKVEIKR
5 | 1.21 µg/mL | hu41H2L3 (antibody, human IgG1, kappa, V domains shown) VH: EVQLVQSGAEVKKPGASVKVSCKASGYTFTSYGISWVRQAPGQGLEWMGEIFPRRGNTYYNEKFRGRVTLTADKSTSTAYMELRSLRSDDTAVYYCARVFDGYYNYAMDYWGQGTTVTVSS VL: DIQMTQSPSSLSASVGDRVTITCRASQDIGSSLNWLQQKPGGAIKRLIYATSSLDSGVPSRFSGSRSGSDYTLTISSLQPEDFATYYCLQYASSPYTFGGGTKVEIKR
6 | 6.17 µg/mL | hu43H2L1 (antibody, human IgG1, kappa, V domains shown) VH: EVQFVESGGGLVQPGGSLRLSCAASGFTFSNYWMNWVRQAPGKGLEWVAQVRLKSDNYATHYAESVKGRFTISREDAKNSAYLQMNSLRAEDTAVYYCSENYYGPAGPFDFWGQGTTVTVSS VL: DIQMTQSPSSVSASVGDRVTITCKASQNVHTSVAWYQQKPGKSPKLLIYSASNRYSGVPSRFSGSGSGTDFTLTISSLQPEDFATYYCQQYSSYPLTFGQGTKLEIKR
7 | 6.22 µg/mL | hu43H1L1 (antibody, human IgG1, kappa, V domains shown) VH: EVQFVESGGGLVQPGGSLRLSCAASGFTFSNYWMNWVRQAPGKGLEWVAQVRLKSDNYATHYAESVKGRFTISRDNAKNSAYLQMNSLRAEDTAVYYCSENYYGPAGPFDFWGQGTTVTVSS VL: DIQMTQSPSSVSASVGDRVTITCKASQNVHTSVAWYQQKPGKSPKLLIYSASNRYSGVPSRFSGSGSGTDFTLTISSLQPEDFATYYCQQYSSYPLTFGQGTKLEIKR
8 | 2.83 µg/mL | hu43H3L1 (antibody, human IgG1, kappa, V domains shown) VH: EVQFVESGGGLVQPGGSLRLSCAASGFTFSNYWMNWLRQAPGKGLEWVAQVRLKSDNYATHYAESVKGRFTISREDAKNSAYLQMNSLRAEDTAVYYCSENYYGPAGPFDFWGQGTTVTVSS VL: DIQMTQSPSSVSASVGDRVTITCKASQNVHTSVAWYQQKPGKSPKLLIYSASNRYSGVPSRFSGSGSGTDFTLTISSLQPEDFATYYCQQYSSYPLTFGQGTKLEIKR
9 | 0.0813 µg/mL | hu46H1L2 (antibody, human IgG1, kappa, V domains shown) VH: EVQLVESGGGLVKPGGSLRLSCAASGFTFSNYGMSWVRQAPGKGLEWVSTIGSGGGYTYYSDSVKGRFTISRDNAKNSLYLQMNSLRAEDTAVYYCARHPQIGYWGQGTLVTVSS VL: DIQMTQSPSSLSASVGDRVTITCKASQSVGTAVAWYQQKPGKAPKLLIYSASSRYTGVPSRFSGSGSGTDFTLTISSLQPEDFADYFCHQYSSYPLTFGGGTKVEIKR
10 | 0.136 µg/mL | hu46H1L1 (antibody, human IgG1, kappa, V domains shown) VH: EVQLVESGGGLVKPGGSLRLSCAASGFTFSNYGMSWVRQAPGKGLEWVSTIGSGGGYTYYSDSVKGRFTISRDNAKNSLYLQMNSLRAEDTAVYYCARHPQIGYWGQGTLVTVSS VL: DIQMTQSPSSLSASVGDRVTITCKASQSVGTAVAWYQQKPGKAPKLLIYSASSRYTGVPSRFSGSGSGTDFTLTISSLQPEDFATYYCHQYSSYPLTFGGGTKVEIKR
11 | 0.12 µg/mL | hu31H1L2 (antibody, human IgG1, kappa, V domains shown) VH: EVQLVESGGGLVQPGGSLRLSCAASGFTFSDYYMAWVRQAPGKGLEWVASINYDGSSTYYLDSLKSRFTISRDNAKNSLYLQMNSLRAEDTAVYYCAGSDGYWAWFAYWGQGTLVTVSS VL: DIQMTQSPSSLSASVGDRVTITCRASGNIHNYLAWYQQKPGKAPQLLVYNAETLADGVPSRFSGSGSGTDFTLTISSLQPEDFATYYCQHFWSTPPTFGGGTKVEIKR
12 | 0.124 µg/mL | hu31H1L3 (antibody, human IgG1, kappa, V domains shown) VH: EVQLVESGGGLVQPGGSLRLSCAASGFTFSDYYMAWVRQAPGKGLEWVASINYDGSSTYYLDSLKSRFTISRDNAKNSLYLQMNSLRAEDTAVYYCAGSDGYWAWFAYWGQGTLVTVSS VL: DIQMTQSPSSLSASVGDRVTITCRASGNIHNYLAWYQQKPGKSPQLLVYNAETLADGVPSRFSGSGSGTQFTLTISSLQPEDFATYYCQHFWSTPPTFGGGTKVEIKR
13 | 0.0731 µg/mL | hu15H3L1 (antibody, human IgG1, kappa, V domains shown) VH: EFQLVQSGAEVKKPGASVKVSCKASGYSFTDHNMNWVRQAPGQRLEWMGLINPNYGTADYNQKFKGRVTITVDQSASTAYMELSSLRSEDTAVYYCARGSSLFAYWGQGTLVTVSS VL: DIQMTQSPSSLSASVGDRVTITCKASQGVDTAVAWYQQKPGKVPKLLIYWASTRHTGVPSRFSGSGSGTDFTLTISSLQPEDVATYYCQQYSRYPLTFGQGTKLEIKR
14 | 0.0847 µg/mL | hu15H5L1 (antibody, human IgG1, kappa, V domains shown) VH: EFQLVQSGAEVKKPGASVKVSCKASGYSFTDHNMNWVRQAPGQRLEWIGLINPNYGTADYNQKFKGRATLTVDQSATTAYMELSSLRSEDTAVYYCARGSSLFAYWGQGTLVTVSS VL: DIQMTQSPSSLSASVGDRVTITCKASQGVDTAVAWYQQKPGKVPKLLIYWASTRHTGVPSRFSGSGSGTDFTLTISSLQPEDVATYYCQQYSRYPLTFGQGTKLEIKR
15 | 0.0874 µg/mL | hu15H2L2 (antibody, human IgG1, kappa, V domains shown) VH: EFQLVQSGAEVKKPGASVKVSCKASGYSFTDHNMNWVRQAPGQRLEWMGLINPNYGTADYNQKFKGRVTITRDTSASTAYMELSSLRSEDTAVYYCARGSSLFAYWGQGTLVTVSS VL: DIQMTQSPSSLSASVGDRVTITCKASQGVDTAVAWYQQKPGKSPKLLIYWASTRHTGVPDRFSGSGSGTDFTLTISSLQPEDVATYYCQQYSRYPLTFGQGTKLEIKR
16 | 0.0818 µg/mL | hu15H5L2 (antibody, human IgG1, kappa, V domains shown) VH: EFQLVQSGAEVKKPGASVKVSCKASGYSFTDHNMNWVRQAPGQRLEWIGLINPNYGTADYNQKFKGRATLTVDQSATTAYMELSSLRSEDTAVYYCARGSSLFAYWGQGTLVTVSS VL: DIQMTQSPSSLSASVGDRVTITCKASQGVDTAVAWYQQKPGKSPKLLIYWASTRHTGVPDRFSGSGSGTDFTLTISSLQPEDVATYYCQQYSRYPLTFGQGTKLEIKR
17 | 0.0871 µg/mL | hu15H2L1 (antibody, human IgG1, kappa, V domains shown) VH: EFQLVQSGAEVKKPGASVKVSCKASGYSFTDHNMNWVRQAPGQRLEWMGLINPNYGTADYNQKFKGRVTITRDTSASTAYMELSSLRSEDTAVYYCARGSSLFAYWGQGTLVTVSS VL: DIQMTQSPSSLSASVGDRVTITCKASQGVDTAVAWYQQKPGKVPKLLIYWASTRHTGVPSRFSGSGSGTDFTLTISSLQPEDVATYYCQQYSRYPLTFGQGTKLEIKR
18 | 0.0821 µg/mL | hu15H3L2 (antibody, human IgG1, kappa, V domains shown) VH: EFQLVQSGAEVKKPGASVKVSCKASGYSFTDHNMNWVRQAPGQRLEWMGLINPNYGTADYNQKFKGRVTITVDQSASTAYMELSSLRSEDTAVYYCARGSSLFAYWGQGTLVTVSS VL: DIQMTQSPSSLSASVGDRVTITCKASQGVDTAVAWYQQKPGKSPKLLIYWASTRHTGVPDRFSGSGSGTDFTLTISSLQPEDVATYYCQQYSRYPLTFGQGTKLEIKR
19 | 0.0683 µg/mL | hu15H1L1 (antibody, human IgG1, kappa, V domains shown) VH: EFQLVQSGAEVKKPGASVKVSCKASGYTFTDHNMNWVRQAPGQRLEWMGLINPNYGTADYNQKFKGRVTITRDTSASTAYMELSSLRSEDTAVYYCARGSSLFAYWGQGTLVTVSS VL: DIQMTQSPSSLSASVGDRVTITCKASQGVDTAVAWYQQKPGKVPKLLIYWASTRHTGVPSRFSGSGSGTDFTLTISSLQPEDVATYYCQQYSRYPLTFGQGTKLEIKR
20 | 0.075 µg/mL | hu15H1L2 (antibody, human IgG1, kappa, V domains shown) VH: EFQLVQSGAEVKKPGASVKVSCKASGYTFTDHNMNWVRQAPGQRLEWMGLINPNYGTADYNQKFKGRVTITRDTSASTAYMELSSLRSEDTAVYYCARGSSLFAYWGQGTLVTVSS VL: DIQMTQSPSSLSASVGDRVTITCKASQGVDTAVAWYQQKPGKSPKLLIYWASTRHTGVPDRFSGSGSGTDFTLTISSLQPEDVATYYCQQYSRYPLTFGQGTKLEIKR
21 | 0.069 µg/mL | hu15H4L1 (antibody, human IgG1, kappa, V domains shown) VH: EFQLVQSGAEVKKPGASVKVSCKASGYSFTDHNMNWVRQAPGQRLEWMGLINPNYGTADYNQKFKGRVTLTVDQSATTAYMELSSLRSEDTAVYYCARGSSLFAYWGQGTLVTVSS VL: DIQMTQSPSSLSASVGDRVTITCKASQGVDTAVAWYQQKPGKVPKLLIYWASTRHTGVPSRFSGSGSGTDFTLTISSLQPEDVATYYCQQYSRYPLTFGQGTKLEIKR
